Data: publication PMC6590870
Where “and” joins values, the source holds several entries; their conditions need not be identical. Equal entries are not always repeated.

Target: Strep-HP1542 (bactofilin HP1542 of H. pylori reference strain 26695, N-terminal Strep-tagged version) (Helicobacter pylori strain 26695)
Test: cross-linking; glutaraldehyde dilutions 10% to 0.01% added to strep-tagged protein, 10 min at 23°C; SDS-PAGE and immunoblotting

## Strep-HP1542 (bactofilin HP1542 of H. pylori reference strain 26695, N-terminal Strep-tagged version) (natural protein)
  stoichiometry N: 2 and 3
